Measured values: article PMC5119558, “Applying bimolecular fluorescence complementation to screen and purify aquaporin protein:protein complexes” (Protein Science : A Publication of the Protein Society, 2016)

Legend:
[1] = molecular target: the molecule itself; experiment: pull-down + SEC; YFPN-AQP0 + YFPC-CaM* co-expressed in S. cerevisiae; membranes solubilised in DDM; HisTrap HP (Ni-NTA) by the His tag on YFPC-CaM*, eluted with 250 mM imidazole; then FSEC on Superose6 Increase (20 mM Tris-HCl pH 7.5, 100 mM NaCl, 5 mM CaCl2, 1% β-OG); fluorescent peak at 15 mL on SDS-PAGE (Coomassie), immunoblot with anti-AQP0 and anti-CaM
[2] = molecular target: the molecule itself; experiment: SEC; isolated AQP0 alone on SEC

| Protein | stoichiometry N [1] | stoichiometry N [2] |
| --- | --- | --- |
| YFPN‐AQP0 of the recloned pair YFPN‐AQP0 + YFPC‐CaM* (hexa‐histidine tag moved away from the AQP0 moiety) (natural protein, human, UniProt P30301 1-263, looked up, aquaporin 0 (AQP0), human; gene codon optimized for yeast (Genscript); As m1 but without the His tag; The purified complex is read by its size (about 500 kDa) as an octameric form of the aquaporin; also called hAQP0; source: S. cerevisiae, co-expressed with YFPC-CaM*, purified as a complex (DDM-solubilised membranes, Ni-NTA, SEC); not shown: YFPN (SYFP2 amino acids 1 to 154, linker KQKVMNH), …) MWELRSASFWRAIFAEFFATLFYVFFGLGSSLRWAPGPLHVLQVAMAFGLALATLVQSVGHISGAHVNPAVTFAFLVGSQMSLLRAFCYMAAQLLGAVAGAAVLYSVTPPAVRGNLALNTLHPAVSVGQATTVEIFLTLQFVLCIFATYDERRNGQLGSVALAVGFSLALGHLFGMYYTGAGMNPARSFAPAILTGNFTNHWVYWVGPIIGGGLGSLLYDFLLFPRLKSISERLSVLKGAKPDVSNGQPEVTGEPVELNTQAL | 8 | – |
| isolated AQP0 (expressed and purified separately) (natural protein, human, UniProt P30301 1-263, looked up, also called pure protein AQP0; source: expressed and purified separately) MWELRSASFWRAIFAEFFATLFYVFFGLGSSLRWAPGPLHVLQVAMAFGLALATLVQSVGHISGAHVNPAVTFAFLVGSQMSLLRAFCYMAAQLLGAVAGAAVLYSVTPPAVRGNLALNTLHPAVSVGQATTVEIFLTLQFVLCIFATYDERRNGQLGSVALAVGFSLALGHLFGMYYTGAGMNPARSFAPAILTGNFTNHWVYWVGPIIGGGLGSLLYDFLLFPRLKSISERLSVLKGAKPDVSNGQPEVTGEPVELNTQAL | – | 4 |
